Laboratory results from patent US20040220079A1 (OKLAHOMA MEDICAL RESEARCH FOUNDATION, published 2004).
No end group written: not given here.

How the values were obtained:
recombinant memapsin 2 [1] = target: T1, recombinant memapsin 2 (human, UniProt P56817 14-454, limits assumed); experiment: comparison of inhibition constants with and without P4 Glu
T1 construct: also called M2; beta-secretase

recombinant memapsin 2 [2] = target: T1, recombinant memapsin 2; experiment: enzyme inhibition with a synthetic fluorogenic peptide substrate
recombinant memapsin 2 [3] = target: T1, recombinant memapsin 2; experiment: inhibition constant quoted in the crystallisation example

T1 sequence (P56817 14-454 limits assumed): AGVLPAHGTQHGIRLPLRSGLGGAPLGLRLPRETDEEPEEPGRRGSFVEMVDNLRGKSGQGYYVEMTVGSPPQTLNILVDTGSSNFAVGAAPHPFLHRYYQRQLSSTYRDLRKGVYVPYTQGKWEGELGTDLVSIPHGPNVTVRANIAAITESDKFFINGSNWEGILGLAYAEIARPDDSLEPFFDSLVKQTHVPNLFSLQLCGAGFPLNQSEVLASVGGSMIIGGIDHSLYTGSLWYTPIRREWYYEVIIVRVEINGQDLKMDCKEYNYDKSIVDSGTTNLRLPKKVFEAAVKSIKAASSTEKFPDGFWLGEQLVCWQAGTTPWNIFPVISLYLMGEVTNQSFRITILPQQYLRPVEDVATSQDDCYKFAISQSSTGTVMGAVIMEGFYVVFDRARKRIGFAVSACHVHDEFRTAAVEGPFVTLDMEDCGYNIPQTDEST

fold increase in Ki against OM99-2 (recombinant memapsin 2 [1]) [fold] | Ki (recombinant memapsin 2 [2]) [nM] | Ki (recombinant memapsin 2 [3]) [nM] | Binder
10 | 30 |  | VNLAAEF (also: Leu-Ala peptide bond replaced by hydroxyethylene isostere -CH(OH)-CH2-, also called OMR99-1; Val-Asn-Leu*Ala-Ala-Glu-Phe) [OM99-1]
 |  | 10 | EVNLAAEF (also: Leu-Ala peptide bond replaced by hydroxyethylene isostere -CH(OH)-CH2- (Leu*Ala)) [OM99-2]
